# Measured values: patent US20210122826A1 (MIT, published 2021)
# T1: Human KLRF1 (human, UniProt Q9NZS2 1-231)
# T1 construct: also called hKLRF1
# T1 sequence: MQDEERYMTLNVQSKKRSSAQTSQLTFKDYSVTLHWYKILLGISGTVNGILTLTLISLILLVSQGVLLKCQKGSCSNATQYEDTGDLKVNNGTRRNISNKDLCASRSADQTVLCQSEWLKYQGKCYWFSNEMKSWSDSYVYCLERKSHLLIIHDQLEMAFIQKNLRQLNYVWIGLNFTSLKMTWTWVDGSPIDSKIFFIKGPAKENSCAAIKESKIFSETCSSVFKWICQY
# T2: Human KLRF2 (human, UniProt D3W0D1 1-207)
# T2 construct: also called hKLRF2
# T2 sequence: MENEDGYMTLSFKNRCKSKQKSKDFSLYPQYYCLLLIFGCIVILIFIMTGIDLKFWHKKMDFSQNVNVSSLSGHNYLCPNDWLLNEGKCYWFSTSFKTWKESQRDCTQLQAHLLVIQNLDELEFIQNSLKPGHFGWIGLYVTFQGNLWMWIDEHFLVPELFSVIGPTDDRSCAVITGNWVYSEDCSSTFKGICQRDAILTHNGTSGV
# T3: Human Clec12B (human, UniProt Q2HXU8 1-276)
# T3 construct: also called hClec12B
# T3 sequence: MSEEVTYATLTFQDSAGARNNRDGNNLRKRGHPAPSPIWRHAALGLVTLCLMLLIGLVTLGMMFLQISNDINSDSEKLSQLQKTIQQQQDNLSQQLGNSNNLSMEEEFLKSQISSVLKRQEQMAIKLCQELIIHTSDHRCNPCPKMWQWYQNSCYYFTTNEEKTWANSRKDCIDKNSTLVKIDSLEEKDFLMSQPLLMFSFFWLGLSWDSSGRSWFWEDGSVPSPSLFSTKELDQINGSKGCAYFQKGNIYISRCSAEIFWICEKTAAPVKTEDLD
# T4: Human KLRG1 (human, UniProt Q96E93 1-195)
# T4 construct: also called hKLRG1
# T4 sequence: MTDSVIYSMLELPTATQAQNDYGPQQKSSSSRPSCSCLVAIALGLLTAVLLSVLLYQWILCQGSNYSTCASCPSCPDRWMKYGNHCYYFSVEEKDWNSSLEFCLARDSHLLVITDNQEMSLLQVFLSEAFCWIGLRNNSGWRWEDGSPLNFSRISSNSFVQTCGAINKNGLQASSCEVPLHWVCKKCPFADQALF
# T5: Human Clec5A (human, UniProt Q9NY25 1-188)
# T5 construct: also called hClec5A
# T5 sequence: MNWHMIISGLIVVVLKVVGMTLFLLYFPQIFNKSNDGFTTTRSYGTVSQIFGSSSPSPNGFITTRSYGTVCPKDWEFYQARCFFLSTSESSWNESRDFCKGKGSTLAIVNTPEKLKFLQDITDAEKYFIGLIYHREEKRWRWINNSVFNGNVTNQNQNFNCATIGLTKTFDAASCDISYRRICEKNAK
# T6: Human CD209 (human, UniProt Q9NNX6 1-404)
# T6 construct: also called hCD209
# T6 sequence: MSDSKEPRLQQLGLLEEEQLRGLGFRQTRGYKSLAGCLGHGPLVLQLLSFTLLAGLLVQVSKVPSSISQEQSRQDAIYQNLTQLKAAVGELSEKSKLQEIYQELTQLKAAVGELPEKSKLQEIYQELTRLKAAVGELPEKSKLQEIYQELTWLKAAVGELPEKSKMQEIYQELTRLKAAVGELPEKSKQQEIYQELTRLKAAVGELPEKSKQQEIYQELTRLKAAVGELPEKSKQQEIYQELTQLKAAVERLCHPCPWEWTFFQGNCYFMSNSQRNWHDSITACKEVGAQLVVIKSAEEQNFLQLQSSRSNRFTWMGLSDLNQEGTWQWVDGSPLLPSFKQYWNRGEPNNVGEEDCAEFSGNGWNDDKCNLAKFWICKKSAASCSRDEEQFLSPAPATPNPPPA
# T7: Human Clec4E (human, UniProt Q9ULY5 1-219)
# T7 construct: also called hClec4E
# T7 sequence: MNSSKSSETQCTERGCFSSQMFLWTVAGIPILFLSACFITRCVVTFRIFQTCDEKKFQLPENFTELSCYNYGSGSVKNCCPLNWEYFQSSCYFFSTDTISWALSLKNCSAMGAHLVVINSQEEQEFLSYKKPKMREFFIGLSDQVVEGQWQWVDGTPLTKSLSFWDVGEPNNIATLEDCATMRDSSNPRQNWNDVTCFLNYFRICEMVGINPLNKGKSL
# T8: Human Clec10A (human, UniProt Q8IUN9 1-316)
# T8 construct: also called hClec10A
# T8 sequence: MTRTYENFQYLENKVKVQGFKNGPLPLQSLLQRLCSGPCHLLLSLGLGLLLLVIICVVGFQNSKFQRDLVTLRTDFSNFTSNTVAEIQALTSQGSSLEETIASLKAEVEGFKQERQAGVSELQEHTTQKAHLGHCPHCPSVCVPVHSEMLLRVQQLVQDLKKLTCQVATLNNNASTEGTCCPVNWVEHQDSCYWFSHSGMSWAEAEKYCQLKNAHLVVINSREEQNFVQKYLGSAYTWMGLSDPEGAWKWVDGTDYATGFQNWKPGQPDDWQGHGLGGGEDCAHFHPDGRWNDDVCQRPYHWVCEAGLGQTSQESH
# T9: cynomolgus CD161 (cynomolgus)
# T9 construct: UniProt A0A2K5WYI1; also called cynoCD161
# T9 chain: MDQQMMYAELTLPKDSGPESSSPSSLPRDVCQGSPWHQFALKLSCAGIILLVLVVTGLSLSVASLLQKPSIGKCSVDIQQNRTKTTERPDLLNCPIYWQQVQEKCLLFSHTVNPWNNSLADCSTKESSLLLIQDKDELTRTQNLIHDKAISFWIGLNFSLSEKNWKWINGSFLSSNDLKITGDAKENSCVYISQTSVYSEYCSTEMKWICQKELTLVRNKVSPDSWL
# B1: KM12.4.7 (antibody, V domains shown)
# VH: EVQLVESGGGLVQPGGSLRLPCAASGFTFSSYAMSWIRQAPGKGLEWVSAISGSGGSIYYADSVKGRFTISRDNSKNTLYLQMDSLRAEDTAVYYCARGYSDSYFYGPYYTFDYWGQGTLVTVSS
# VL: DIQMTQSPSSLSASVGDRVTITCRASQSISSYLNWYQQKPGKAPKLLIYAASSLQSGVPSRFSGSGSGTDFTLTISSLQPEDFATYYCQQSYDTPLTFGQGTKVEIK
# B2: KW17.3.4 (antibody, V domains shown)
# VH: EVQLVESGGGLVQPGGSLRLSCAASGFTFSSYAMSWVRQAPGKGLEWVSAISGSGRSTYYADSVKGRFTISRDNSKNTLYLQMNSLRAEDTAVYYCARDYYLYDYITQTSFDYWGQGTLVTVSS
# VL: QSVLTQPPSVSGAPGQRVTISCTGSSSNIGAGYDVHWYQQLPGTAPKLLIYGNSNRPSGVPDRFSGSQSGTSASLAITGLQAEDEADYYCQSYNSGHTVFGGGTQLTVL
# B3: KW9.3.3 (antibody, V domains shown)
# VH: EVQLVESGGGLVQPGGSLRLSCAASGFTFSSYAMSWVRQAPGKGLEWVSAISGSGGRTYYADSVKGRFTISRDNSKNTLYLQMNSLRAEDTAMYYCARGPGYMYLYGDSFFEYWGQGTLVTVSS
# VL: DIQMAQSPSSLSASVGDRVTITCRASQGISSYLNWYQQKPGKAPKLLIYAASSLQSGVPSRFSGSGYGTDFTLTISSLQPEDFATYYCQQSYSTPLTFGQGTKVEIK
# How the values were obtained:
# Human KLRF1 = molecular target: T1, Human KLRF1; assay: flow, Jurkat
# Human KLRF2 = molecular target: T2, Human KLRF2; assay: flow, Jurkat
# Human Clec12B = molecular target: T3, Human Clec12B; assay: flow, Jurkat
# Human KLRG1 = molecular target: T4, Human KLRG1; assay: flow, Jurkat
# Human OLR1 = molecular target: T10, Human OLR1 (human, UniProt P78380 1-273); assay: flow, Jurkat
# T10 construct: also called hOLR1
# Human Clec5A = molecular target: T5, Human Clec5A; assay: flow, Jurkat
# Human Clec9A = molecular target: T11, Human Clec9A (human, UniProt Q6UXN8 1-241); assay: flow, Jurkat
# T11 construct: also called hClec9A
# Human CD209 [1] = molecular target: T6, Human CD209; assay: flow, Jurkat
# Human Clec4E = molecular target: T7, Human Clec4E; assay: flow, Jurkat
# Human Clec10A = molecular target: T8, Human Clec10A; assay: flow, Jurkat
# cynomolgus CD161 = molecular target: T9, cynomolgus CD161; assay: flow, Jurkat, 100 nM Ab
# Human CD209 [2] = molecular target: T6, Human CD209; assay: flow, Jurkat, 100 nM Ab
# T11 sequence (Q6UXN8 whole entry): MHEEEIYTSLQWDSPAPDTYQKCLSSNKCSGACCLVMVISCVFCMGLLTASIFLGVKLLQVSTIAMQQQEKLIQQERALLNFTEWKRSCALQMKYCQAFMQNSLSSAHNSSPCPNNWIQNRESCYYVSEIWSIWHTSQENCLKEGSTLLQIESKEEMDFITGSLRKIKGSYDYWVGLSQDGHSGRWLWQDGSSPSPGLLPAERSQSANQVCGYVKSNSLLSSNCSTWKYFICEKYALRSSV
Binder,binding result (Human KLRF1),binding result (Human KLRF2),binding result (Human Clec12B),binding result (Human KLRG1),binding result (Human OLR1),binding result (Human Clec5A),binding result (Human Clec9A),binding result (Human CD209 [1]),binding result (Human Clec4E),binding result (Human Clec10A),MFI normalized to WT (cynomolgus CD161),MFI normalized to WT (Human CD209 [2])
B1,no binding (tested: 100 nM),no binding (tested: 100 nM),no binding (tested: 100 nM),no binding (tested: 100 nM),no binding (tested: 100 nM),no binding (tested: 100 nM),no binding (tested: 100 nM),no binding (tested: 100 nM),no binding (tested: 100 nM),no binding (tested: 100 nM),116,0.97
B2,no binding (tested: 100 nM),no binding (tested: 100 nM),no binding (tested: 100 nM),no binding (tested: 100 nM),no binding (tested: 100 nM),no binding (tested: 100 nM),no binding (tested: 100 nM),no binding (tested: 100 nM),no binding (tested: 100 nM),no binding (tested: 100 nM),1.03,0.94
B3,no binding (tested: 100 nM),no binding (tested: 100 nM),no binding (tested: 100 nM),no binding (tested: 100 nM),no binding (tested: 100 nM),no binding (tested: 100 nM),no binding (tested: 100 nM),no binding (tested: 100 nM),no binding (tested: 100 nM),no binding (tested: 100 nM),0.89,0.81
